Assay results published in doi:10.1101/2025.08.28.672897.

Molecular target: μ opioid receptor (MOR) (human) (UniProt P35372)
Chain of UniProt P35372 (P35372 whole entry): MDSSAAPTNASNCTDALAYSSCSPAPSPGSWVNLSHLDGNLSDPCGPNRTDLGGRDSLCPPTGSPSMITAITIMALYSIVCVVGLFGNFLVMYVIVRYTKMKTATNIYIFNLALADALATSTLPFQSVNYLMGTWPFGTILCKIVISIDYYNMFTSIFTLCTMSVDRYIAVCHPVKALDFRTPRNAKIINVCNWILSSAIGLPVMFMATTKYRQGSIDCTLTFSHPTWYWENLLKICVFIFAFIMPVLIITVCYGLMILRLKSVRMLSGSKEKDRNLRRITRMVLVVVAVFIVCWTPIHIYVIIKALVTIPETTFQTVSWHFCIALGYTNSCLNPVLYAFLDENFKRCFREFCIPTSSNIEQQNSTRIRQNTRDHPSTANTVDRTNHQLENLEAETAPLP

## DAMGO (peptide)
  TRUPATH BRET2, Ggust activation, 0 mM sodium, pEC50: 10.2 pEC50
  TRUPATH BRET2, Ggust activation, 140 mM sodium, pEC50: 9.57 pEC50
  TRUPATH BRET2, Gi1 activation, 0 mM sodium, pEC50: 9.01 pEC50
  TRUPATH BRET2, Gi1 activation, 140 mM sodium, pEC50: 7.55 pEC50
  TRUPATH BRET2, Gi2 activation, 0 mM sodium, pEC50: 9.97 pEC50
  TRUPATH BRET2, Gi2 activation, 140 mM sodium, pEC50: 9.17 pEC50
  TRUPATH BRET2, Gi3 activation, 0 mM sodium, pEC50: 9.43 pEC50
  TRUPATH BRET2, Gi3 activation, 140 mM sodium, pEC50: 8.12 pEC50
  TRUPATH BRET2, GoA activation, 0 mM sodium, pEC50: 9.82 pEC50
  TRUPATH BRET2, GoA activation, 140 mM sodium, pEC50: 9.08 pEC50
  TRUPATH BRET2, GoB activation, 0 mM sodium, pEC50: 9.77 pEC50
  TRUPATH BRET2, GoB activation, 140 mM sodium, pEC50: 8.52 pEC50
  TRUPATH BRET2, Gz activation, 0 mM sodium, pEC50: 9.66 pEC50
  TRUPATH BRET2, Gz activation, 140 mM sodium, pEC50: 8.82 pEC50
